This experiment deals with ubiquitin^TAMRA (C-terminal TAMRA-labelled ubiquitin) (UniProt P0CG48 1-76, TAMRA label at the C-terminus). Description: fluorescence polarisation. In general terms: In fluorescence polarisation assays a small probe gives low polarisation when free and higher when bound to something large.

B1: HOIP^RBR-LDD (699–1072), as used in the FP assay (domain or fragment)
chain: CAVCGWALPHNRMQALTSCECTICPDCFRQHFTIALKEKHITDMVCPACGRPDLTDDTQLLSYFSTLDIQLRESLEPDAYALFHKKLTEGVLMRDPKFLWCAQCSFGFIYEREQLEATCPQCHQTFCVRCKRQWEEQHRGRSCEDFQNWKRMNDPEYQAQGLAMYLQENGIDCPKCKFSYALARGGCMHFHCTQCRHQFCSGCYNAFYAKNKCPEPNCRVKKSLHGHHPRDCLFYLRDWTALRLQKLLQDNNVMFNTEPPAGARAVPGGGCRVIEQKEVPNGLRDEACGKETPAGYAGLCQAHYKEYLVSLINAHSLDPATLYEVEELETATERYLHVRPQPLAGEDPPAYQARLLQKLTEEVPLGQSIPRRRK
For orientation: Kd means the constant that tells how readily two partners part at equilibrium. Regarding B1, the dissociation constant (Kd) stood at 118 µM.

B2: HOIP^RBR-LDD C930A (domain or fragment)
chain: CAVCGWALPHNRMQALTSCECTICPDCFRQHFTIALKEKHITDMVCPACGRPDLTDDTQLLSYFSTLDIQLRESLEPDAYALFHKKLTEGVLMRDPKFLWCAQCSFGFIYEREQLEATCPQCHQTFCVRCKRQWEEQHRGRSCEDFQNWKRMNDPEYQAQGLAMYLQENGIDCPKCKFSYALARGGCMHFHCTQCRHQFCSGCYNAFYAKNKCPEPNCRVKKSLHGHHPRDALFYLRDWTALRLQKLLQDNNVMFNTEPPAGARAVPGGGCRVIEQKEVPNGLRDEACGKETPAGYAGLCQAHYKEYLVSLINAHSLDPATLYEVEELETATERYLHVRPQPLAGEDPPAYQARLLQKLTEEVPLGQSIPRRRK
In the case of B2, the Kd was 83 µM.

The record behind these values is article PMC3463842 (The EMBO Journal, 2012).
